In the DeepSol protein solubility set:

Assay: soluble on expression in E. coli; label from the status in PepcDB or PDB records

Sequence | soluble on expression in E. coli
MSLQENPYQLVKDVEGIGFGKADELGSRMGLSGNHPERVKAAILYTLETTCLSEGHTYIETEQLIIDTQSLLNQSAREGQRITEMDAANAIIALGENKDIVIEDGRCYFPSLFYAEQNVAKRVKHIASQTEYENQFPESEFLLALGELEERMDVQYAPSQKEAIQKALSSPMLLLTGGPGTGKTTVIRGIVELYGELHGVSLDPSAYKKDEAFPIVLAAPTGRAAKRMSESTGLPAVTIHRLLGWNGAEGFTHTEDQPIEGKLLIIDEASMLDIWLANHLFKAIPDHIQIIIVGDEDQLPSVGPGQVLRDLLASQVIPTVRLTDIYRQAEGSSIVELAHQMKNGLLPNNLTAPTKDRSFIRCGGSQIKEVVEKVVANALKKGYTAKDIQVLAPMYRGKAGINELNVMLQDILNPPKEKRRELKFGDVVYRTGDKILQLVNQPENNVFNGDIGEITSIFYAKENTEKEDMAVVSFDGNEMTFTKKDFNQFTHAYCCSIHKSQGSEFPIVVLPVVKGYYRMLRRNLLYTAITRAKKFLILCGEEEALEWGVKNNDATVRQTSLKNRLSVQVEEGHHHHHH | soluble
MKPATYNTEAFDEWIRSRFVELNSQLEQLYYQQTDRANVQEVGTELKHTLESEGRELVKALLDEGNTDEGFDSAFDLLGNVGLYMAACRRHEITEPTRETTSPLLEASALAMHIGASIGVTPRFATAHLTTHNRAHNGIYKRFTDLPDEKLFVDYNTKGILAYKRASDALLKIQPLGISHPISHDLLRVTKQALQDVIESNQQLFNRLDTDRFFYCVRPYYKPYRVGSVVYRGANAGDFAGINVIDLTLGLCFANEASYSQMLVDKFLYMMPEDQQILRECMRRPNLMDDFLQAKGCIHQDWYQENLKLFIEVCELHGQTAIQHHNELVTKYIAEPSVSMEQQHLAKVTASGPPLHVLLASLERLRDRRAAVLRDDIRTRYYDLKKLKDSLRAAALEHHHHHH | soluble
MKKKGKFLLFTMDEFDQWLLETRFSRSVKLVQNHHTYLPGYVQFTGSNHFGLLEGMEHFHMAERGFSEIAQNLTSFPDGTVAVCRSIDKVPCGIKGANQEGICLENLGNFDAGGDTMTPAHRDAIVKINALLCREFNLTPNTDSIVYHHWYDLNSGKRTGGSGTTKTCPGTAFFGGNSMDAAAATFIPLVAQTLAQLTGGTAPSAPVPLKSGEVVASSLNVRAGRGTEFPVVKGLKRGVRVNVFETADGWVRIHPTEQQWVAERYLRYAAAALEHHHHHH | soluble
MKKVAVLLAPGFEEAEAIVTLDILRRLHIDVETLACAESRAVVSYHDIPMVADSTLSERQQALFDAVVLPGGPQGSANLAANPAVIAFVARHDAAGKLICPICSAAARVLGAHGLLKGRRYVCSGDLWKAVPEGVYVDAPVVEDGNLISGKGLGHVFDFALTLSARLLGDDAPVREQAEHIYYPW | not soluble
MFKRVGIFVALVTLSLIFNQPATAGRTVEDFQVWGNITALGNFGFVNPGNPDLKKFRWWMEGQGRFGNDSSQFTQAIIRPGLGYAITDKIIIWAGYAWIPSDEPLVPKSGLPFDEHRIWQQVTWADEFSFGKLSLRSRFEQRFFDHNAPVSGSDDVAYRFRQLVKLAIPVAMIDPNLTFIIQNELFIGLNTVSNPGFISRGFDQNRAFVGLGYKVHQNATVELGYMNQFIDRRHNPRPDQMMHNFAVNLFLNF | not soluble
MGSDKIHHHHHHMNEPHGERISVEIPGLERILRGGFLPGRSYLVSGGPGTGKTTLGLQYLASSADGNGLLISLGESERNLRADALRIGLSLDGTSVIDLSPGADAEPEAAYTLLEPWEAEGVDIRSRIGALLPDGPPERVFIDALSQLRQLMPDAYQFRKQVMGLLEYLNSAGTTVLYTAEQGSSADTDLRYLGDGILELEHRENRRILRVLKFRGSGFSEGEHTLRLGDHGMQVFERLMPGEHRRTYVAEELPCGIGELDRLSGGGITRGTVTIISGPTGVGKTSLGLQYMHEAARRGERSVVYTFEESIGTLRTRCEAIGIPVSDMMAKGSLSIDEVEPLHYSPDEFAWRVRTEVEQQGARMVMLDSLAGFRQSVRGDDITAHAHALCHYLSNMGVTVLLVNEQSAIAGEELRPSEDDINYLADTIVLLRYMELDGGLRKAIGILKKRTGDFEKTLREFQITREGLRVGAPLYGLQGILQGIPSKIATLDATE | not soluble
MGSDKIHHHHHHMLLDLERFYQACNPSRPLIIGNASDRRYYIDFAAVRGGKIIEALQRTIARISPDEPTCQLFTGHLGCGKSTELLRLKAELEAQQFHVVYFESTHVLEMADVDVTDILLAIAGQVSESLEAMKIRLKSTYFTKLFGEIVDFLQTPIDLGVEAELSVGIAKITAKTKESPQLRRRLRDYLEPRTANILQSINQELLERATKELKTKGKKGLVVIVDNLDRVAIRPLPSGRSLPEYLFIQRGEQLRKLNCHVVYTIPLALTFSNDSAELQHRLGGGVAPKMLPMIPVRLRSGEIFPQGLAMLRQMVLARAFPDILPSDRLGLITEVFDSLETLDRLCLISGGHVRDLLGLLFDCLREQDPPFERECVDLVIQRQRDYRANAIDPQEWELIFQVVQQQRVRGDIEYHTLLRSLFVFEYRDHQGAWFAVNPVLAETEKFKSWLNDTHKQI | not soluble
MGSDKIHHHHHHMIDGKTANEIFDSIRQHIIAGTLRAEDSLPPVRELASELKVNRNTVAAAYKRLITAGLAQSLGRNGTVIKGSPSPVALEGGDPHTPLHDLSGGNPDPQRLPDLSRYFARLSRTPHLYGDAPVSPELHAWAARWLRDATPVAGEIDITSGAIDAIERLLCAHLLPGDSVAVEDPCFLSSINMLRYAGFSASPVSVDSEGMQPEKLERALNQGARAVILTPRAHNPTGCSLSARRAAALQNMLARYPQVVVIIDDHFALLSSSPWQPVIAQTTQHWAVIRSVSKTLGPDLRLAIVASDSATSAKLRLRLNAGSQWVSHLLQDLVYACLTDPEYQHRLTQTRLFYAARQQKLARALQQYGIAISPGDGVNAWLPLDTHSQATAFTLAKSGWLVREGEAFGVSAPSHGLRITLSTLNDSEINTLAADIHQALNR | not soluble
MSLGGDQAAGAVLPVTIFTARKFITMERGAPEATAVAVAGKRIVAAGSLAEVKTAVGSRPFTLDETFASKIVMPGLIDQHLHPVLGALTLAVEVIAPEDWVLPGGTHKAAGSADAYQARLKAADAKLDKPDAWLLTWGYHALWHGKLDRAALDAINPTRPIAVWHRSCHEFYLNTPALAALGISEAMTQNQGQASEQSNWREGHFWEGGLNLMMTPMLKVLATPERLAFGLKQMVSYLHANGVTAYMEPGALYTPDMWKLYEQILGAPETPMYATFIADGRGIVDRVGLDGALDAVEQQIAVAPEAPGRKLMFFPGQIKLFADGAIISQLMQMKDGYLDGHQGEWIIPPDELERRARLFWNAGYQIHTHVNGDLGLEKLLDILEKLNAEHPRPDHRSVIVHFANSTEDQVARIKRLGALVSANPYYTTGFADKYSAVGLGPERADAMVRAKSVLDQGVPLSYHSDLPMAPSAPLYLAWCGVNRLTPSGRVAGPEQRVSVDAALRAITIEAAYSWRHEDQLGSIAPGKIANFTVLEQDPYAVPPEQLKDVPIWGTVFEGRVFPVGREGHHHHHH | soluble
MKGSRIELGDVTPHNIKQLKRLNQVIFPVSYNDKFYKDVLEVGELAKLAYFNDIAVGAVCCRVDHSQNQKRLYIMTLGCLAPYRRLGIGTKMLNHVLNICEKDGTFDNIYLHVQISNESAIDFYRKFGFEIIETKKNYYKRIEPADAHVLQKNLKVPSGQNADVQKTDN | soluble
MSLIVLGLEGTAHTISCGIIDESRILAMESSMYRPKTGGIRPLDAAVHHSEVIDTVISRALEKAKISIHDIDLIGFSMGPGLAPSLRVTATAARTISVLTGKPIIGVNHPLGHIEIGRRVTGAIDPVMLYVSGGNTQVIAHVNGRYRVLGETLDIGIGNMIDKFAREAGIPFPGGPEIEKLAMKGTKLLDLPYSVKGMDTAFSGILTAALQYLKTGQAIEDISYSIQETAFAMLVEVLERALYVSGKDEILMAGGVALNRRLRDMVTNMAREAGIRSYLTDREYCMDNGIMIAQAALLMYKSGVRMSVEETAVNPRFRIDEVDAPWITDASRKDYGKAGAESRIEEVSFHGRPAIRKVRISKSYRNSDLDKKIRYERMRNEFTILRKLKEAGVNSPVVYDFDPFSMSITMQKIPGRMMSAELNEGRTDFLNELGIMIAKMHRAGIAHGDLTVNNIIVNDSVFIIDPSMGKVNAEIEDMAVDIYALEDSIKGLGLDSGSVIGQMLKSYRNNFNLADDVLETVSAIRRRHRYVEGHHHHHH | not soluble
MTIFEKNVIEFVTVAAEFCAFLERAEHMKRKAFVDTSLKILPLLYLKASLLPKCETIGDEAPETYVTEEIYEILRINLAGLMGEKDDYLDVFVQDMVYSDQPIKKSVSEDLADIYQDIKDFIFVFQLGLNETMNDSLAICQENFGLLWGQKLVNTLRALHDVKYLEHHHHHH | soluble
